Target: T1, mouse CHL1 protein expressed on the surface of HEK293 cells transfected with mChl1 pIRES2-EGFP (mouse, UniProt P70232 26-1209)
T1 construct: whole, on cells; also called CHL1 protein on cell surface; cell adhesion molecule L1-like
T1 sequence (looked up): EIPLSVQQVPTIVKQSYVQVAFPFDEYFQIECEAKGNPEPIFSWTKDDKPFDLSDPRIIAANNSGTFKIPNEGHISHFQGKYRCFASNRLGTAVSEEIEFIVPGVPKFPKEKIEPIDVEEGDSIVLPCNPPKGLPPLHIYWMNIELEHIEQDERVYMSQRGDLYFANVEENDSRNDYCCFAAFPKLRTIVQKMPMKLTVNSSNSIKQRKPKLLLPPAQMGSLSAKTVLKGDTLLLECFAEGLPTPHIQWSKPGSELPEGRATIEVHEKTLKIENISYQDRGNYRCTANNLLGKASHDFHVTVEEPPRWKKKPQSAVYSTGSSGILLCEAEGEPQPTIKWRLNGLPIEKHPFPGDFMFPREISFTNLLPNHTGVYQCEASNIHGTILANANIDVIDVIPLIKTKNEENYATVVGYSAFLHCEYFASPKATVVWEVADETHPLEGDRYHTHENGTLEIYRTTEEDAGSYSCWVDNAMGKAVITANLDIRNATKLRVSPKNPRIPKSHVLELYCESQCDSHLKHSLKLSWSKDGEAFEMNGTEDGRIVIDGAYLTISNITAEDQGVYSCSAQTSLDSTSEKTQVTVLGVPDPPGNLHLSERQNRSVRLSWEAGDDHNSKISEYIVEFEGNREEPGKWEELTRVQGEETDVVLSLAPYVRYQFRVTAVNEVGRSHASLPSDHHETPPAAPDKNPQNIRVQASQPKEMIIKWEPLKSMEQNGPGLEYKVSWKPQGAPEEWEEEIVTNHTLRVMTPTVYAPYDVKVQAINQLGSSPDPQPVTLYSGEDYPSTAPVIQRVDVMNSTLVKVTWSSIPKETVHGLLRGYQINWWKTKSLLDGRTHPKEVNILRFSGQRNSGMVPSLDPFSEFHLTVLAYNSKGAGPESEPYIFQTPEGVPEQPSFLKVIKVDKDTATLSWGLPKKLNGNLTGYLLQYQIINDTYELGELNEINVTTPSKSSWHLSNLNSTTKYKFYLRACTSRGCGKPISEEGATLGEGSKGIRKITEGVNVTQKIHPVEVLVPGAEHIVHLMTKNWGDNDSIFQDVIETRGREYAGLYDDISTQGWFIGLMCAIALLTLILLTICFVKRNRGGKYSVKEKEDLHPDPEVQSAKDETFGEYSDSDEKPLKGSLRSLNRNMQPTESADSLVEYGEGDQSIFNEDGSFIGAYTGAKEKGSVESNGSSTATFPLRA
Assay: FACS: hybridoma culture supernatant on HEK293 cells transfected with mChl1 pIRES2-EGFP, detected with APC goat anti-rat IgG
Excerpt: Mouse CHL1 gene (mChl1) was cloned into pIRES2-EGFP vector by PCR using Phusion (Thermo Fisher Scientific Inc.: F530L). Y3Ag cells ([…]) were transfected with mChl1 pIRES2-EGFP by electroporation, and four 7-week-old female or male SD rats (CLEA Japan, Inc.) were immunized from their footpads and tail roots with a mixture of the cells with TiterMax Gold (Funakoshi Co., Ltd.: G-1X5). After 3 to 8 immunizations, inguinal lymph nodes or iliac lymph nodes were isolated, and their cells were fused with AG8 myeloma cells using PEG1500 (Roche: 10783641001). The obtained hybridomas were screened in HAT medium (DS Pharma Biomedical Co., Ltd.: 16-808-49) or HT medium (DS Pharma Biomedical Co., Ltd.: 16-809-49) under conditions supplemented with BM condimed H1 (Roche: 11088947001). The culture supernatants were collected and reacted with HEK293 cells transfected with mChl1 pIRES2-EGFP. Then, antibody titers in the supernatants were studied by FACS analysis using APC goat anti-Rat IgG (BioLegend, Inc.: 405407).

binding result: binds
B1: 336 antibody, a monoclonal antibody to the CHL1 protein (antibody, V domains shown)
VH: EVQLQQSGPELQRPGASVKLSCKASGYPFTEYYIYWMKQRPKQGLELIGRIDPEDGSTDYVEKFKNKATLTADTSSNTAYMQLSSLTSEDTATYFCARALQGFAYWGQGTLVTVSS
VL: EIVLTQSPTTMAASPGEKVTLTCRASSSVSYMYWYLQKSGTSPKLWIYDTSRLASGIPDRFSGSGSGTSYSLTISSMETEDTATYYCQQGGSYPYTFGAGTKLELKR
notes: Rat monoclonal antibody from SD rats immunized with Y3Ag cells expressing mouse CHL1; Used as hybridoma culture supernatant in the FACS screen, and as protein G-purified antibody from ascitic fluid in later work
